Here are results for four variants from IntAct's records for PubMed 26385923.

The chains are these.
B1: Mitochondrial antiviral-signaling protein (Homo sapiens), Q7Z434 (parent)
chain: MPFAEDKTYKYICRNFSNFCNVDVVEILPYLPCLTARDQDRLRATCTLSGNRDTLWHLFNTLQRRPGWVEYFIAALRGCELVDLADEVASVYQSYQPRTSDRPPDPLEPPSLPAERPGPPTPAAAHSIPYNSCREKEPSYPMPVQETQAPESPGENSEQALQTLSPRAIPRNPDGGPLESSSDLAALSPLTSSGHQEQDTELGSTHTAGATSSLTPSRGPVSPSVSFQPLARSTPRASRLPGPTGSVVSTGTSFSSSSPGLASAGAAEGKQGAESDQAEPIICSSGAEAPANSLPSKVPTTLMPVNTVALKVPANPASVSTVPSKLPTSSKPPGAVPSNALTNPAPSKLPINSTRAGMVPSKVPTSMVLTKVSASTVPTDGSSRNEETPAAPTPAGATGGSSAWLDSSSENRGLGSELSKPGVLASQVDSPFSGCFEDLAISASTSLGMGPCHGPEENEYKSEGTFGIHVAENPSIQLLEGNPGPPADPDGGPRPQADRKFQEREVPCHRPSPGALWLQVAVTGVLVVTLLVVLYRRRLH
partner: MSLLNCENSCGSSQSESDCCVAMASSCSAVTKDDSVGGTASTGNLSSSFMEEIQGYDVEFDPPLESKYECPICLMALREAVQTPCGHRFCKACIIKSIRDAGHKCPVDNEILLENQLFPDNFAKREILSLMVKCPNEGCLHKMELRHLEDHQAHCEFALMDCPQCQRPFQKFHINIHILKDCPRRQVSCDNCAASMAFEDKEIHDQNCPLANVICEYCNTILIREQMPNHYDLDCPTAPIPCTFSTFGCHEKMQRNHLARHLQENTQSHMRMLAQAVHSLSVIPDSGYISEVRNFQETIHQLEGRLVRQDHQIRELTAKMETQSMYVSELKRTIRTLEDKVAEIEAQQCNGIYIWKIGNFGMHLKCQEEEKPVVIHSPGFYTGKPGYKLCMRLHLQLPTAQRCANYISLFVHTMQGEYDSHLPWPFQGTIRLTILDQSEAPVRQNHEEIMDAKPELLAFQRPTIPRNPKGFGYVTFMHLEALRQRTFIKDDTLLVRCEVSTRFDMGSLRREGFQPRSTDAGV

The variants in this experiment derive from B1. The conditions noted are these: with traf6_human TRAF6, Q9Y4K3.
With P455D, the “effect of a mutation on the interaction” value was “disrupting interaction strength”.

As for Y460E, the “effect of a mutation on the interaction” value is “decreasing interaction strength”.

Regarding Y460A, the “effect of a mutation on the interaction” value is reported as “disrupting interaction strength”.

E457A: the “effect of a mutation on the interaction” value is listed as “disrupting interaction strength”.
